A short description of the data set: amyloid nucleation score (Sup35N fusion, yeast selection) (log enrichment); library NNK2; higher = more nucleation; inactive = no reads after selection. In a few lines: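 Three technical output replicates were used for random libraries. Psi-negative yeast expressing peptides of 20 random codons fused to Sup35N were induced with 100 μM copper sulfate for 24 hours and grown 7 days at 30°C on medium lacking adenine and uracil, and input and output plasmid inserts were Illumina-sequenced, excluding sequences with under 100 input reads. The nucleation score is the DiMSum log enrichment of output over input reads, centred on the mode score of non-aggregating sequences.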

Data on 140 substances can be found in the supplement of paper PMC12042874.

± gives the uncertainty stated by the source.

In turn, IDSFDPGFRRHLDRSWIRRH displayed an amyloid nucleation score of 0.105 ± 1.1. TVFDRNMDTGIMCIVMSWDN: the amyloid nucleation score is -0.318 ± 0.48. In turn, AYMVASMESMDACRVLRLPS came in with an amyloid nucleation score of 0.87 ± 0.21.

For the substance QTGCSITFLKFGRSAVSTVK, the amyloid nucleation score was determined as 0.378 ± 0.27. In turn, SWWIVFWGHTTTRWNCSLGD had an amyloid nucleation score of -0.831 ± 0.35. With HSLVCDN, the amyloid nucleation score was -0.122 ± 0.39.

Regarding ASMCIGRWIFGEYYSFNMFI, the amyloid nucleation score is 0.775 ± 0.38. In turn, HAAGSLHMDYLV gave an amyloid nucleation score of 0.122 ± 1.1. ALDFSRSRDKGG showed an amyloid nucleation score of 1.42 ± 0.23. On to DDVSIL, for which the amyloid nucleation score is 0.14 ± 1. As for TFVHIIHNFVGVQHFKKLGC, the figure is 5 ± 0.094; as for SSFFRISS, -0.907 ± 1; as for ICQCGYFWF, 2.8 ± 0.15. Consider VGGQNGCCWVVLNTSVPNSS, for which the amyloid nucleation score is 6.645 ± 0.052. The substance YIIIYLTRHTGVRDVYVSGG yielded an amyloid nucleation score of -0.79 ± 1.

PCNTVLASPRYHVGGIYNLK had an amyloid nucleation score of -0.727 ± 0.78. Consider RIVIFFFTCIYPIWIRNTWP, for which the amyloid nucleation score was -1.18 ± 1.1. On to GGLIE, for which the amyloid nucleation score was -0.817 ± 1.1. As for YSRFYLYMSRRGMRS, the figure is -0.122 ± 0.53; as for FLFEN, -0.607 ± 0.64; as for FLSRIYESLSTVI, “inactive”. In turn, HSLSFLMNSFMRYRSCLVVA came in with an amyloid nucleation score of -0.119 ± 0.26. In the case of YVLRYYALVLYFLICWYYAY, the amyloid nucleation score was 0.215 ± 0.57. VEVKNRYRVRKLLCGLLRIR gave an amyloid nucleation score of 0.799 ± 0.74. The substance TIFSHVYLALLR displayed an amyloid nucleation score of 0.382 ± 0.8. Take FGNDPSGCVNQAYYHRCFLD: the amyloid nucleation score is -0.959 ± 0.78.

For KVRLGTLTYICYANSNRLCP, the amyloid nucleation score worked out at 2.37 ± 0.12. In the case of MLKSYDKKWWGTMAWSNSSV, the amyloid nucleation score turned out to be 0.711 ± 0.34.

As to SQGCVICGFYLLWHPNRHCQ, the amyloid nucleation score was found to be 9.447 ± 0.051. The substance RHSLYVFY yielded an amyloid nucleation score of 1.69 ± 0.33. For VIPYISYLDIGTLVLLAFID, the amyloid nucleation score is -0.373 ± 1.

Consider HSLLLRWNGYSM, for which the amyloid nucleation score came to 4.92 ± 0.1. MLVDVLGC: the amyloid nucleation score entry is “inactive”.

The substance MSRWKVHFTMRTSPCIVNEH yielded an amyloid nucleation score of 1.17 ± 0.45. For VHLSLGGNIGLDGLQMVGVL the value was “inactive”. As for CFCPMLLLYIVRP, the figure is 7.483 ± 0.023; as for AGYIVIALSRCCTDSRPNRV, “inactive”.

The substance QVFRFSYKCPCHAVG had an amyloid nucleation score of 1.75 ± 0.15.

As for RFGNCGVTMTRSAGRFRAIS, the amyloid nucleation score is -0.169 ± 0.29. Substance KVVITQSRVGTLESVKVFYV came in with an amyloid nucleation score of 1.77 ± 0.19. Substance RVIHKFLYK yielded an amyloid nucleation score of 6.288 ± 0.06. As for GSWHDWHRCRSLRYDQTNTS, the figure is -0.185 ± 0.39; as for QFRTIHAHYNFFG, 7.68 ± 0.048. For LVSFGVYMLSSVRKECHSLN the value was 0.536 ± 0.49.

EFGDQLSDYNWIVCMLGTYI returned an amyloid nucleation score of -0.904 ± 1.1.

For YFIGFSSSMNFGYFMRVYRI, the amyloid nucleation score result is “inactive”. As for PFRKDVTLPLIFVLHVLQPD, the amyloid nucleation score was -0.191 ± 0.54. FLGLTDWRVDYCSEWQGFAQ registered an amyloid nucleation score of -0.199 ± 1.1. Consider DVDFRSMCEGTFSLNDQPNR, for which the amyloid nucleation score is -0.825 ± 0.78. As to SFDFHNGGDIEYLV, the amyloid nucleation score result is “inactive”. HIVVTKTWAGQRHVQFIM gave an amyloid nucleation score of 1.07 ± 0.26. ARMRFKRRKCCNAIWVRSSV showed an amyloid nucleation score of 0.398 ± 0.3. Consider RECFGGVQYRVRFSKFPYES, for which the amyloid nucleation score is -0.663 ± 0.5.

Take NRRFSSGSVSSLKFLRSVWA: the amyloid nucleation score is -0.428 ± 0.61. Consider VFARWFYAADGYIARLHVHT, for which the amyloid nucleation score stood at 0.133 ± 0.5. On to VHAVGHNSIGTRIRWVNGAA, for which the amyloid nucleation score turned out to be 0.504 ± 0.33. YRGQLARCDILHSWQTVCSM came in with an amyloid nucleation score of -0.337 ± 0.49. Regarding FMLAHVYVNV, the amyloid nucleation score is -1.01 ± 0.78. For NVTQMRGSDISLLRMFESNY the value was 0.454 ± 0.45; for SKKTIVFGGTIRTTALPGPG, -0.592 ± 0.76. The substance WRGSLTSPAPGET came in with an amyloid nucleation score of 1.87 ± 0.17.

IYYACL: the amyloid nucleation score was determined as 6.401 ± 0.054.

As for RRVGRYESWRNFSNEI, the amyloid nucleation score is -0.835 ± 0.27.

GTGLNKHNNSC gave an amyloid nucleation score of 0.36 ± 0.19. KLYLVWPTCGDGCSFGLRAT: the amyloid nucleation score was -0.194 ± 0.24.

In turn, SCRVRFNRSCAPGNSQIGMS had an amyloid nucleation score of 8.674 ± 0.058. DINVCRVYEY: the amyloid nucleation score is -0.011 ± 1.1. Consider SMMKLDEYI, for which the amyloid nucleation score is -1.17 ± 0.78. For KKSHFLKRYNTAYVGRHLVH the value was -0.07 ± 0.53; for LHVHLGSEGPLHNKIVDAAK, -0.168 ± 0.42; for LDKAIHSWGVLDWAVKQDNA, 0.293 ± 0.26. Turning to DIPTMVNGILYFTGYDPRVS, the amyloid nucleation score is -0.647 ± 1.1. On to RKVPVR, for which the amyloid nucleation score entry is “inactive”. On to PRGAPNVFDFTLNFSLKQVA, for which the amyloid nucleation score is -0.551 ± 0.35. In turn, DGIDTCGMCL gave an amyloid nucleation score of -0.096 ± 0.63. As for RVMSVCGSYVNRGEADVVSG, the figure is 0.364 ± 0.18; as for MWIHYKVFRCWTVRAEKVTG, 4.29 ± 0.083.

As for TKAYNTFLRPETVRLSESTK, the amyloid nucleation score came to 0.9 ± 0.18. The substance KVQNWMLNTHGFYSLRGFDQ displayed an amyloid nucleation score of -0.857 ± 0.41. As for MLLYNESNANQLKRGSGRWL, the figure is 0.156 ± 0.32; as for CAPYTVLGYGLGTQFHAGEN, 1.8 ± 0.1; as for LNQSKFGKVGTSSVFWLFYN, -1.01 ± 0.31. Substance LQYAKSHRVSWDGMAANSPG registered an amyloid nucleation score of 0.067 ± 0.45.

Take LLPWSPLKVVTSGYSTF: the amyloid nucleation score was -1.03 ± 0.78. In the case of AKVNCISIITEDILILSEMV, the amyloid nucleation score result was “inactive”. On to VDCCSFSLWVVW, for which the amyloid nucleation score is 3.98 ± 0.093. In the case of SLSRLVLECNGKSVRHEKM, the amyloid nucleation score was 0.393 ± 0.32. GRWVST came in with an amyloid nucleation score of 1.29 ± 0.43. FMVILSGYIVL showed an amyloid nucleation score of 0.429 ± 0.66. The substance VHKYSSGMDYRSVVNLETLG gave an amyloid nucleation score of 0.192 ± 1.

Substance YNTQVCEVVMWGQHPTTLSS gave an amyloid nucleation score of -0.418 ± 0.41. SDLLFVLASLSCLQWNKDIA came in with an amyloid nucleation score of -0.457 ± 0.25. For MKSLLLLCCYSELAYLCGML the value was -1.34 ± 0.4. Substance RVLLHSLRKYLIHDCDVYRA gave an amyloid nucleation score of -0.474 ± 0.55. Regarding FLSSGFCRTDFVRSIILYGP, the amyloid nucleation score is -1.43 ± 0.55. IFPFLDFRRFFLVYHVGPIS registered an amyloid nucleation score of 2.4 ± 0.24. LVYDKENIGRLDRRRVWRRQ: the amyloid nucleation score was found to be 0.767 ± 0.74.

In the case of ISFYVCVIML, the amyloid nucleation score stood at 7.433 ± 0.065. The substance TCYWRGLAGYR displayed an amyloid nucleation score of 3.28 ± 0.14. In the case of FGLSRL, the amyloid nucleation score is 0.713 ± 0.74. Take NILVLLVTGVTLGR: the amyloid nucleation score turned out to be 4.11 ± 0.059. As for YFCRMMCLNRWIGRLLFRCN, the figure is 0.775 ± 0.62; as for SSRTPNYA, “inactive”; as for YIVLCYSFRFVFF, “inactive”. With VWKVVKIRAL, the amyloid nucleation score entry was “inactive”.

The substance RKGSNDYPFWPAVVWHPLPA had an amyloid nucleation score of 0.753 ± 0.4. In the case of GSLYVLAMLSGYVAKPYKIY, the amyloid nucleation score was -0.072 ± 0.79. In turn, SVDRVYGSTFIFSRGDR yielded an amyloid nucleation score of 8.113 ± 0.022. CTMLLGSESEGWSLQIFVLL had an amyloid nucleation score of 0.05 ± 0.62. As for FSRYNVCYFRVAKGNARLPF, the figure is -0.541 ± 0.76; as for ISFNQHTLSYKNVIFNCAFE, 4.16 ± 0.044; as for SNNAI, 0.476 ± 0.56.

TMILCRKYNASWMIVARNDL registered an amyloid nucleation score of -0.311 ± 1.1. Take LQHSTRLNWD: the amyloid nucleation score is 0.954 ± 0.51. The substance LQMLLHDQTEMFEYT showed an amyloid nucleation score of -0.112 ± 0.28.

Regarding RGVFAMLTVSYGNS, the amyloid nucleation score was 5.483 ± 0.043. Consider FCVAGQLLVS, for which the amyloid nucleation score came to 0.228 ± 0.25. As for SSREYEEGMAGTGGLELLSL, the figure is 1.16 ± 0.44; as for KTYDGGFKRNRDEVGPKPGE, -0.326 ± 1; as for VTNCNPDRW, -0.149 ± 0.63.

On to FVFELGKWHCELFWYELCLS, for which the amyloid nucleation score result was “inactive”. As for YYQVVTNNLSI, the amyloid nucleation score was determined as 0.129 ± 0.76. GAAFILSIYYQPSTTPPLRA: the amyloid nucleation score came out at 2.62 ± 0.084. For FALHGEDWSNSTISRNFWSR the value was -0.031 ± 0.35; for PCIWGDVVL, 0.506 ± 0.41; for LACVKMFSGVFV, 0.06 ± 0.65.

GWEYYSCGENWSLSPLSGYN gave an amyloid nucleation score of -0.969 ± 0.34. VCGFRAIVVVDPYWQPGKMA displayed an amyloid nucleation score of 2.42 ± 0.13. The substance DLIMETYHLVSKCTFCGIEN yielded an amyloid nucleation score of 6.473 ± 0.06. As to REEYCSFTICWSLDALHDRG, the amyloid nucleation score worked out at 0.527 ± 0.65. For the substance PQLSKVLGWNYRCVNLSIW, the amyloid nucleation score is 4.93 ± 0.086. With NIYIWVSTMFLLKSEQSSSN, the amyloid nucleation score is 6.038 ± 0.058.

Consider FVQAVDVVWFGILLKVLFRS, for which the amyloid nucleation score result is “inactive”. For EWLAVYVYLHQDGLNNFRS the value was -0.784 ± 0.4.

For the substance LVKGRAAERCNFLSWVKSVQ, the amyloid nucleation score was -0.533 ± 0.3. For FKQLIMGYS, the amyloid nucleation score is 3.24 ± 0.075. Substance VYVIFPPLSTSLPVSMSYNL showed an amyloid nucleation score of -0.548 ± 1.1.

FFFRSHKTIILVAKG displayed an amyloid nucleation score of -0.104 ± 0.2.

In turn, LLRMKTFDHWYRAREGFAYC gave an amyloid nucleation score of -0.512 ± 0.3. The substance NRSLD registered an amyloid nucleation score of -1.26 ± 0.54.
